Measurements reported in article PMC2811017.
Like-named read-outs stand apart in the source and are kept apart here.

Tests used:
Assay in all cases: ITC
[1] = molecular target: eRF1:eRF3 complex (human) (UniProt P62495)
[2] = molecular target: full-length human eRF3a (GSPT1) (human)
[3] = molecular target: full-length human eRF3a (GSPT1) (human); remark: listed apart in the source

Kd [1]	dH [1]	stoichiometry N (PABP per eRF3) [1]	Kd [2]	dH [2]	stoichiometry N (PABP per eRF3) [2]	Ka [3]	dH [3]	Ka [2]	Substance
700 nM	-26.3 kcal/mol	0.71	700 nM	-30.3 kcal/mol	0.5	–	–	–	human 6His cytoplasmic poly(A)-binding protein (PABP) (from UniProt P11940 1-636) (natural protein)
–	–	–	–	-6.1 kcal/mol	–	1.1e+06 M⁻¹	-10.8 kcal/mol	4.4e+06 M⁻¹	human 6His eRF1 (from UniProt P62495 1-437) (natural protein)
